Experimental data: IntAct's records for PubMed 26744420

B1: PAX-interacting protein 1 (Mus musculus), Q6NZQ4 (parent)
chain: MSEPAPEVPEELFREVKYYAVGDIDPQVIQLLKAGKAKEVSYNALASHIISEDGDNPEVGEAREVFDLPVVKPSWVTLSVQCGALLPVNGFSPESCQIFFGLTACLSQVSSEDRSALWALVTFHGGSCQLNLNKKCTHLIVPEPKGEKYERAVKRTSIKIVTPDWVLDCVSEKRRKDEAFYHPRLIIYEEEEEEEEEGDNEEQDSQNEGSTEKSSVASSAVASPAEQPCSPKPRAEVSKGELMFDDSSDSSPEKQERSLNWAPAEAPPLNTAQRRLPQGKGPGLINLCANVPPVPGDILPPDMRGNLMAPGQNLQNSERSEILGTWSPAVRTLRNITNNADIQQINRPSNVAHILQSLSAPTKSLEQQVARGQQGHPNASAVLFGQAKGAPETHVLQQHHPPQQPQQQHPALHLQPQIMQLQQQQQQQQQQQQQPQPYPQPPSHQFPQQVHQHQFSQQQLQFPQQPLHPQQQLHRPQQQLQPFQQQHALQQQLHQLQQQQLQHHQLAQLQQQQQQQHNLLQQQQQQQQLQRLQQQQQMQNQAAHLSQASQALQHQVLPQQPLQLSLQPPPQQQQQQQLFGHDPAVEIPEESFLLGCVFAIADYPEQMSDKQLLATWKRIIQAHGGTVDPTFTSRCTHLLCASQVSSMYTQALRERKRCVTAHWLNTVLKKKKLMPPHRALHFPVAFPPGGKPCSQHIISVTGFVDNDRDDLKLMAYLAGAKYTGYLCRSNTVLICKEPSGLKYEKAKEWRIPCVNAQWLGDILLGNFEALRQVQYSRYTAFNMPDPFVPTPHLVLGLLDAWRTPVKVTAELLMGVRLPPKLKPNEVANIQPSSKRARIEDLPPPTKKLTPELTPLVLFTGFEPVQVQQYIKKLYILGGEVAECTKKCTHLIASKVTRTVKFLTAISVVKHIVTPDWLEECFKRQTFIDEQNYILRDAEAEVLFSFSLEESLKRAHVSPLFKTKYFYITPGICPSLATMKAIVECAGGKVLAKQPSFRKLMEHKQNKSLSEIILISCENDLHLCREYFARGIDVHNAEFVLTGVLTQTLDYESYKFN

Variants of: B1
Details: with pgr1a_mouse Pagr1a

Variant	effect of a mutation on the interaction
W165R	disrupting interaction
